Measured values: patent EP4682166A1 (Guangzhou Enmai Biotechnology Co., Ltd, dated 2026)

T1: human NMI (N-myc Interacting protein), recombinant protein (human, UniProt Q13287 1-307, limits assumed)
T1 construct: Gene ID: 9111; also called hNMI; antigen
T1 sequence (looked up): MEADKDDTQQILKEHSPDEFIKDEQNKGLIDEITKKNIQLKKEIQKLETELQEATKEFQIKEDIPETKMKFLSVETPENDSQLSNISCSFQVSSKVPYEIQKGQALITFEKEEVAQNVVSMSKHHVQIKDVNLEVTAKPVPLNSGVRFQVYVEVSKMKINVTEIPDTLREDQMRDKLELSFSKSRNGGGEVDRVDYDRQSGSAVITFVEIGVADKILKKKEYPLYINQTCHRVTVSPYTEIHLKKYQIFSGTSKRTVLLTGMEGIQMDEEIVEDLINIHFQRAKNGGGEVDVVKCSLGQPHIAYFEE

T2: human NMI (N-myc Interacting protein) (human, UniProt Q13287 1-307, limits assumed)
T2 construct: Immunogen and ELISA coating antigen; also called hNMI; antigen 1
T2 sequence (looked up): T1 sequence (looked up)

B1: monoclonal antibody 94C4 (antibody, V domains shown)
VH: QSLEESGGGLVQPEGSLTLTCKASGFDFSSNAMCWVRQAPGKGLEWIACISSASSGSSGSTYYASWAKGRFTISKTSSTTVTLQMTSLTAADMATYFCARDGYDLWGPGTLVTVSS
VL: QVLTQTPSSVSAAVGGTVTISCQSSPSVYNNYLSWFQQKPGQSPKLLIYRVSTLASGVPSRFSGSGSGTQFTLTISGVQCDDAATYYCAGGYDSASDTYVFGGGTEVVVK
notes: Rabbit monoclonal antibody; Used biotin-labelled as detection antibody (94C4-1-biotin); also called 94C4-1
B2: 39B4 (antibody, V domains shown)
VH: QEQLVESGGGLVQPEGSLTLTCTASGFSFSSSYWICWVRQAPGKGLEWIACIYAGTSGSTYYASWAKGRFTISKTSSTTVDLQMNSLTAADTATYFCARAGYYTYGAGVYIYPSSFKLWGPGTLVTVSS
VL: DVVMTQTPASVEAAVGGTVTIKCQASESIGNALAWYQQKPGQPPKLLIYSASNLASGVPSRFSGSGSGTQFTLTISDLECADAATYYCQSYYYSSSSITFGGGTEVVVK
notes: Rabbit monoclonal antibody; also called 39B4-1; 39B4-1-biotin (biotin-labelled form)
B3: 240B10-1 (antibody, V domains shown)
VH: QSLEESGGRLVTPGGSLTLTCTVSGIDLSSYTMGWVRQAPGKGLEYIGIISGGGRTYYASWAKGRFTISKTSSTTVDLKVTSLTTEDTATYFCARIYTLWGQGTLVTVSS
VL: QVLTQTLASVSAAVGGTVTINCQSSQSVYNNDYLAWFQQKSGQPPKQLIHSASKLASGVPSRFKGSGSGTQFTLTINDVQCDDAATYYCLGGYDCYSADCNVFGGGTEVVVK
notes: Rabbit monoclonal antibody; also called 240B10-1-biotin (biotin-labelled form)
B4: B-8 (antibody, V domains shown)
VH: QSLEESGGDLVKPGASLTLTCTASGFSFSSSYYMCWVRQAPGKGLEWIACIYAGSSGSTYYASWAKGRFTISKTSSTTVTLQMTSLTAADTATYFCAREYSYDDYGDFWGFNLWGPGTLVTVSS
VL: ALVMTQTPSSVSAAVGGTVTINCQASQNIYTNLAWYQQKPGQPPKLLIYGASNLESGVPSRFKGSGSGTEYTLTISDLECDDAATYYCQSSLYSRIADRANAFGGGTEVVVK
notes: Rabbit monoclonal antibody; also called B8-1; B-8-biotin (biotin-labelled form)

Legend:
[1] = molecular target: T1, human NMI (N-myc Interacting protein), …; experiment: sandwich ELISA; detection 39B4-1-biotin; hNMI 1.235 ng/mL
[2] = molecular target: T1, human NMI (N-myc Interacting protein), …; experiment: sandwich ELISA; detection 98G10-1-biotin; hNMI 3.704 ng/mL
[3] = molecular target: T1, human NMI (N-myc Interacting protein), …; experiment: sandwich ELISA; detection 98G10-1-biotin; hNMI 11.111 ng/mL
[4] = molecular target: T1, human NMI (N-myc Interacting protein), …; experiment: sandwich ELISA; detection 39B4-1-biotin; hNMI 3.704 ng/mL
[5] = molecular target: T1, human NMI (N-myc Interacting protein), …; experiment: sandwich ELISA; detection 98G10-1-biotin; hNMI 100.000 ng/mL
[6] = molecular target: T1, human NMI (N-myc Interacting protein), …; experiment: sandwich ELISA; detection 98G10-1-biotin; hNMI 1.235 ng/mL
[7] = molecular target: T1, human NMI (N-myc Interacting protein), …; experiment: sandwich ELISA; detection 98G10-1-biotin; hNMI 33.333 ng/mL
[8] = molecular target: T1, human NMI (N-myc Interacting protein), …; experiment: sandwich ELISA; detection 39B4-1-biotin; hNMI 33.333 ng/mL
[9] = molecular target: T1, human NMI (N-myc Interacting protein), …; experiment: indirect ELISA, coated hNMI
[10] = molecular target: T1, human NMI (N-myc Interacting protein), …; experiment: sandwich ELISA; detection 39B4-1-biotin; hNMI 100.000 ng/mL
[11] = molecular target: T1, human NMI (N-myc Interacting protein), …; experiment: sandwich ELISA; detection 39B4-1-biotin; hNMI 11.111 ng/mL
[12] = molecular target: T2, human NMI (N-myc Interacting protein); experiment: I-ELISA, hNMI coated 1 ug/mL; antibody 19.53125 ng/mL
[13] = molecular target: T2, human NMI (N-myc Interacting protein); experiment: indirect ELISA, human NMI coated; supernatant 1/9
[14] = molecular target: T2, human NMI (N-myc Interacting protein); experiment: indirect ELISA, human NMI coated; supernatant 1/243
[15] = molecular target: T2, human NMI (N-myc Interacting protein); experiment: indirect ELISA, human NMI coated (repeats Table 1)
[16] = molecular target: T2, human NMI (N-myc Interacting protein); experiment: indirect ELISA, human NMI coated; supernatant 1/3
[17] = molecular target: T2, human NMI (N-myc Interacting protein); experiment: indirect ELISA, human NMI coated; supernatant dilution series
[18] = molecular target: T2, human NMI (N-myc Interacting protein); experiment: indirect ELISA, human NMI coated; supernatant 1/6561
[19] = molecular target: T2, human NMI (N-myc Interacting protein); experiment: indirect ELISA, human NMI coated; supernatant 1/729
[20] = molecular target: T2, human NMI (N-myc Interacting protein); experiment: I-ELISA, hNMI coated 1 ug/mL; antibody 2.4414063 ng/mL
[21] = molecular target: T2, human NMI (N-myc Interacting protein); experiment: I-ELISA, hNMI coated 1 ug/mL; antibody 9.765625 ng/mL
[22] = molecular target: T2, human NMI (N-myc Interacting protein); experiment: I-ELISA, hNMI coated 1 ug/mL; antibody 1250 ng/mL
[23] = molecular target: T2, human NMI (N-myc Interacting protein); experiment: indirect ELISA, human NMI coated; supernatant 1/19683
[24] = molecular target: T2, human NMI (N-myc Interacting protein); experiment: indirect ELISA, human NMI coated; supernatant 1/2187
[25] = molecular target: T2, human NMI (N-myc Interacting protein); experiment: indirect ELISA, human NMI coated; supernatant 1/81
[26] = molecular target: T2, human NMI (N-myc Interacting protein); experiment: I-ELISA, hNMI coated 1 ug/mL; antibody 312.5 ng/mL
[27] = molecular target: T2, human NMI (N-myc Interacting protein); experiment: I-ELISA, hNMI coated 1 ug/mL; antibody 1.2207031 ng/mL
[28] = molecular target: T2, human NMI (N-myc Interacting protein); experiment: I-ELISA, hNMI coated 1 ug/mL; antibody 2500 ng/mL
[29] = molecular target: T2, human NMI (N-myc Interacting protein); experiment: I-ELISA, hNMI coated 1 ug/mL; antibody 625 ng/mL
[30] = molecular target: T2, human NMI (N-myc Interacting protein); experiment: I-ELISA, hNMI coated 1 ug/mL; antibody 39.0625 ng/mL
[31] = molecular target: T2, human NMI (N-myc Interacting protein); experiment: indirect ELISA, human NMI coated; supernatant 1/59049
[32] = molecular target: T2, human NMI (N-myc Interacting protein); experiment: I-ELISA, hNMI coated 1 ug/mL; antibody 156.25 ng/mL
[33] = molecular target: T2, human NMI (N-myc Interacting protein); experiment: I-ELISA, hNMI coated 1 ug/mL; antibody 4.8828125 ng/mL
[34] = molecular target: T2, human NMI (N-myc Interacting protein); experiment: I-ELISA, hNMI coated 1 ug/mL; antibody 78.125 ng/mL
[35] = molecular target: T2, human NMI (N-myc Interacting protein); experiment: indirect ELISA, human NMI coated; supernatant undiluted
[36] = molecular target: T2, human NMI (N-myc Interacting protein); experiment: indirect ELISA, human NMI coated; supernatant 1/27
[37] = molecular target: T2, human NMI (N-myc Interacting protein); experiment: sandwich ELISA; coating antibody 2.5 ug/mL, detection 94C4-biotin 0.5 ug/mL
[38] = molecular target: T2, human NMI (N-myc Interacting protein); experiment: indirect ELISA, human NMI coated (repeats Table 3)
[39] = molecular target: T2, human NMI (N-myc Interacting protein); experiment: indirect ELISA, human NMI coated; supernatant dilution series; remark: listed apart in the source

Binder | OD450 [12] [OD450] | OD450 [20] [OD450] | OD450 [21] [OD450] | OD450 [22] [OD450] | OD450 [26] [OD450] | OD450 [27] [OD450] | OD450 [28] [OD450] | OD450 [29] [OD450] | OD450 [30] [OD450] | OD450 [32] [OD450] | OD450 [33] [OD450] | OD450 [34] [OD450] | detection limit (sensitivity) [37] [pg/mL] | EC50 [38] [ng/mL] | EC50 [39] [ng/mL] | also measured
B1 |  |  |  |  |  |  |  |  |  |  |  |  |  |  |  | OD450 [1]: 0.372 OD450; OD450 [2]: 0.627 OD450; OD450 [3]: 1.36 OD450; OD450 [4]: 0.735 OD450; OD450 [5]: 3.1 OD450; OD450 [6]: 0.292 OD450; OD450 [7]: 2.51 OD450; OD450 [8]: 2.75 OD450; EC50 [9]: 32.7 ng/mL; OD450 [10]: 3.22 OD450; OD450 [11]: 1.67 OD450
B2 | 0.529 | 0.099 | 0.296 | 2.13 | 1.99 | 0.077 | 2.25 | 1.99 | 0.828 | 1.8 | 0.159 | 1.43 | 40 |  |  | ELISA OD [13]: 3.41 OD; ELISA OD [14]: 3.1 OD; EC50 [15]: 0.567 ng/mL; ELISA OD [16]: 3.43 OD; EC50 [17]: 0.567 ng/mL; ELISA OD [18]: 1.61 OD; ELISA OD [19]: 2.76 OD; ELISA OD [23]: 0.758 OD; ELISA OD [24]: 2.32 OD; ELISA OD [25]: 3.28 OD; ELISA OD [31]: 0.415 OD; ELISA OD [35]: 3.4 OD; ELISA OD [36]: 3.35 OD
B3 | 0.573 | 0.105 | 0.333 | 2.13 | 2.19 | 0.077 | 2.15 | 2.2 | 0.996 | 1.85 | 0.163 | 1.46 | 60 | 2.6 | 2.6 | 
B4 | 0.502 | 0.099 | 0.243 | 1.68 | 1.67 | 0.084 | 1.85 | 1.62 | 0.838 | 1.36 | 0.143 | 1.26 | 60 | 2.51 | 2.51 | 
